Holding throughout (format): cell-based, human
One assay relates to HEM-DP melanocytes. As to the kind of experiment: Proliferation of cultured melanocytes, total cell numbers counted. Conditions: NRG-1 50 ng/ml, as early as day 1 until confluent, vs control. How it is done:
(§1) FIGS. 5A-5D illustrate the effect of NRG-1 on the proliferation of human melanocytes in culture. FIG. 5A) Lightly-pigmented (HEM-LP) and FIG. 5B) darkly-pigmented (HEM-DP) melanocytes were treated with or without NRG-1 (50 ng/ml) for 1, 3, 5 or 9 days in 10 cm culture dishes and total cell numbers were counted. Results are the averages of three studies±SD. FIG. 5C) Phosphorylated-Akt levels were detected by western blotting for HEM-LP and HEM-DP melanocytes treated with NRG-1 (50 ng/ml) for 5 days compared to vehicle treated controls; GAPDH is used as a loading control. FIG. 5D) HEM-DP melanocytes were treated with NRG-1 (50 ng/ml) for 1, 3 or 5 days and p-Akt levels were detected by western blotting compared to vehicle treated controls; GAPDH is used as a loading control. Results shown are representative of three studies; statistically significant differences are indicated.
(§2) Human neonatal epidermal melanocytes, lightly and darkly pigmented (HEM-LP and HEM-DP, respectively) were obtained from Cascade Biologics (Portland, Oreg.) and were cultured in melanocyte growth medium (MGM) consisting of Medium 254 and human melanocyte growth supplement (both from Cascade Biologics) at 37° C. under 5% CO2. Melanocytes from the third to ninth passage were used in these studies. […]

Another assay has as its system HEM-LP melanocytes. The assay is described as above. To be noted: NRG-1 50 ng/ml, as early as day 1 until confluent, vs control. How it is done: as §1, §2
The next assay concerns phospho-Akt (Ser473). The assay is described as follows: Phosphorylated-Akt levels by western blotting in melanocytes. To be noted: NRG-1 50 ng/ml. On the procedure:
as §1
(§3) Fibroblast cultures in 100-mm dishes were solubilized in appropriate volumes of M-PER mammalian protein extraction reagent (Pierce Biotechnology, Rockford, Ill.) containing a Protease Inhibitor mixture (Roche, Mannheim, Germany) and phosphatase inhibitors. The protein concentration of each extract was measured using a BCA protein assay kit (Pierce, Rockford, Ill.). Cell extracts (20 μg) were separated on 8-16% gradient SDS polyacrylamide gels (Invitrogen, Carlsbad, Calif.), after which proteins were transferred to PVDF membranes (Invitrogen, Carlsbad, Calif.). Membranes were blocked for 1 hour in PBS or Tris buffered saline (TBS) containing 0.1% Tween 20 and 5% (w/v) nonfat dry milk powder and were incubated overnight at 4° C. with the primary antibody in PBS containing 0.1% Tween 20 and 2.5% (w/v) nonfat dry milk powder or in 0.1% Tween-TBS with 5% BSA, depending on the antibody. The following primary antibodies were used: anti-human DKK-1 (0.2 μg/ml), anti-human DKK-3 (0.1 μg/ml), anti-human bFGF (0.1 μg/ml), anti-human SCF (0.1 μg/ml), anti-human mouse monoclonal ERBB3 (1 μg/ml) and anti-human mouse monoclonal ERBB4 (2 μg/ml) antibodies from R&D Systems, neuregulin-1α/β1/2 (C-20) (1:500) and GAPDH (FL-335) (1:10,000) antibodies from Santa Cruz Biotechnology, ERBB2 rabbit monoclonal (1:1000) and phospho-Akt (Ser473) (1:1000) antibodies from Cell Signaling Technology. Membranes were then incubated with an HRP-linked anti-rabbit antibody (GE Healthcare) at 1:10,000 dilution or with an anti-goat antibody (DAKO) at 1:2,000 dilution at room temperature for 1 hour. Antigen-antibody complexes were detected using an ECL-plus Western blotting detection system (GE Healthcare). Each study was performed at least in triplicate. […]

For another assay, the system named is ERBB2. The assay is described as follows: ERBB2 protein level by western blotting in melanocytes. How it is done:
(§4) FIGS. 7A and 7B are digital images illustrating expression of ERBBs after NRG-1 treatment. FIG. 7A) HEM-LP and HEM-DP melanocytes were treated with or without NRG-1 (50 ng/ml) for 5 days, and levels of ERBB2, ERBB3 or ERBB4 were detected by western blotting. Results shown are representative of three studies. FIG. 7B) Expression of ERBB2 was examined in HEM-LP and in HEM-DP melanocytes after 1 or 9 days or treatment with NRG-1 compared to vehicle-treated controls; the results are representative of two independent studies.
FIGS. 8A and 8B are digital images illustrating the mechanism of ERBB2 abrogation after NRG-1 treatment. FIG. 8A) ERBB2 mRNA levels in HEM-LP and in HEM-DP melanocytes were detected by RT-PCR after treatment with or without NRG-1 (50 ng/ml) for 1 day. FIG. 8B) MG132 (120 nM) was added to the melanocyte culture medium to inhibit proteasomal degradation during treatment of HEM-LP and HEM-DP melanocytes with or without NRG-1 (50 ng/ml). Proteins were extracted for each sample, and ERBB2 levels were detected by western blotting. Results are representative of three studies.
as §3, with “Healthcare).” for “Healthcare). Each study was performed at least in triplicate.”
(Immunoblotting shows a protein as a band on a membrane.)

A further assay relates to ERBB3. The assay is described as follows: ERBB3 protein level by western blotting in melanocytes. To be noted: NRG-1 50 ng/ml, 5 days. How it is done: as §4
(§5) Fibroblast cultures in 100-mm dishes were solubilized in appropriate volumes of M-PER mammalian protein extraction reagent (Pierce Biotechnology, Rockford, Ill.) containing a Protease Inhibitor mixture (Roche, Mannheim, Germany) and phosphatase inhibitors. The protein concentration of each extract was measured using a BCA protein assay kit (Pierce, Rockford, Ill.). Cell extracts (20 μg) were separated on 8-16% gradient SDS polyacrylamide gels (Invitrogen, Carlsbad, Calif.), after which proteins were transferred to PVDF membranes (Invitrogen, Carlsbad, Calif.). […] Antigen-antibody complexes were detected using an ECL-plus Western blotting detection system (GE Healthcare). […]

For a further assay, the system named is ERBB4. The assay is described as follows: ERBB4 protein level by western blotting in melanocytes. To be noted: HEM-LP and HEM-DP, NRG-1 50 ng/ml, 5 days. On the procedure:
as §4, §5

B1: NRG-1: commercially available recombinant human neuregulin-1 (rhNRG-1-β1, R&D Systems), SEQ ID NO: 11 (protein)
chain: TSHLVKCAEKEKTFCVNGGECFMVKDLSNPSRYLCKCPNEFTGDRCQNYVMASFYKHLGIEFMEAEELYQK
As to B1, the Cell numbers result in the assay on HEM-DP melanocytes and in the assay with HEM-LP melanocytes was “significantly higher” in each case. The “Levels of p-Akt” value is given as “equally high” with phospho-Akt (Ser473) (HEM-DP, day 1, low confluency, vs control); “significantly higher” in the assay with phospho-Akt (Ser473) (HEM-DP, day 5, vs control); “significantly higher” in the assay on phospho-Akt (Ser473) (HEM-LP, day 5, vs control). In the assay with phospho-Akt (Ser473) (HEM-DP, day 3 through day 5, control decreased by day 3), the “Levels of p-Akt, time course” value is “maintained higher levels of p-Akt through day 5”. Moreover, in the assay with ERBB2 (HEM-LP and HEM-DP, NRG-1 50 ng/ml, 5 days), the “Expression of ERBB2” value is “almost completely undetectable”. Moreover, the “Level of ERBB2” value with ERBB2 (both types of melanocytes, NRG-1, 1 day) is recorded as “significantly decrease”. For the same molecule, the ERBB2 expression entry with ERBB2 (both types of melanocytes, NRG-1, day 3, lasted until day 9) is recorded as “completely disappeared”. Moreover, the ERBB3 expression level entry in the assay on ERBB3 (HEM-DP) is reported as “not affected”; in the assay with ERBB3 (HEM-LP) it was “no detectable change”. The “Levels of ERBB4 expression” value in the assay with ERBB4 is “did not change”.

The record behind these values is patent US9168297B2, “Regulation of skin pigmentation by neuregulin-1 (NRG-1)” (The United States of America, as Represented by the …, priority 2010, dated 2015).
